Source: publication PMC3498290, “Mimicking Insect Communication: Release and Detection of Pheromone, Biosynthesized by an Alcohol Acetyl Transferase Immobilized in a Microreactor” (PLoS ONE, 2012)

Substrate: CC/C=C/C=C\CCCCCCCCO
Assay: batch acetylation assay, Hanes-Woolf plot
Assay type: biochemical, Acinetobacter baylyi
Details: free enzyme in batch, before immobilization; co-substrate acetyl-CoA (300 µM in the preliminary time course); alcohol 1.25 µM-1.3 mM

B1: Acinetobacter wax synthase (atf, alcohol acetyl transferase; His6-tagged diacylglycerol acyl transferase) (Acinetobacter baylyi ADP1) (protein)
chain: MRPLHPIDFIFLSLEKRQQPMHVGGLFLFQIPDNAPDTFIQDLVNDIRISKSIPVPPFNNKLNGLFWDEDEEFDLDHHFRHIALPHPGRIRELLIYISQEHSTLLDRAKPLWTCNIIEGIEGNRFAMYFKIHHAMVDGVAGMRLIEKSLSHDVTEKSIVPPWCVEGKRAKRLREPKTGKIKKIMSGIKSQLQATPTVIQELSQTVFKDIGRNPDHVSSFQAPCSILNQRVSSSRRFAAQSFDLDRFRNIAKSLNVTINDVVLAVCSGALRAYLMSHNSLPSKPLIAMVPASIRNDDSDVSNRITMILANLATHKDDPLQRLEIIRRSVQNSKQRFKRMTSDQILNYSAVVYGPAGLNIISGMMPKRQAFNLVISNVPGPREPLYWNGAKLDALYPASIVLDGQALNITMTSYLDKLEVGLIACRNALPRMQNLLTHLEEEIQLFEGVIAKQEDIKTAN
notes: His6-tagged, pET23a, E. coli Rosetta(DE3)pLysS; Ni-NTA and gel filtration; tag kept; plasmid from S. Uthoff (Muenster)
For B1, the Km was 1.63 µM.
